Assay results published in patent US20250136677A1 (ZOETIS SERVICES, published 2025).
Where two headings read alike, the source gives them in different places.

Columns and labels:
[1] = target: T1, wildtype feline IL-31 protein (Feline_IL31_wildtype) (feline); assay: Biacore, feline IL-31 chip, mAb 100 nM, share of points within parent mean +/-3 SD; set-up: key: % of mutant data points within parent mAb mean ±3 SD
T1 construct: Full length feline IL-31 with C-terminal His tag, secreted from ExpiCHO cells; also called fIL-31
T1 chain: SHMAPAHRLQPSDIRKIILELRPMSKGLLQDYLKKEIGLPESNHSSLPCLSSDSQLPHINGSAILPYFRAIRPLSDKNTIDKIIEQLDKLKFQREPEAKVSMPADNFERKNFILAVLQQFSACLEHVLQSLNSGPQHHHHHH
Source text: The region of an antibody responsible for antigen recognition represents the paratope. A paratope is created by a combination of amino acids in the complementarity determining regions (CDRs) of both the heavy and light chain variable regions. The binding between antibody and antigen is often mediated by side chains of CDR residues with side chains or carbohydrate moieties of the antigen. To help define critical side chains involved in antibody recognition alanine scanning mutagenesis was performed on each CDR residue in both the heavy and light chain. These mutants were then individually tested for the ability to bind feline IL-31 using the biacore and evaluated for inhibition of IL-31-mediated signaling in the FCWF-4 cell based assay.
(§1) The mean response unit of four replicates of the parent mAb+/−3 standard deviations was used to generate parameters to define a threshold of response units comprising both the on- and off-rates antibody binding (FIG. 22). The percentage of data points for each mutant fell within this threshold was then used to define a “% similarity score” (FIG. 23).

[2] = target: T1, wildtype feline IL-31 protein …; assay: cell-based or functional assay
[3] = target: T1, wildtype feline IL-31 protein …; assay: Biacore, feline IL-31 chip, mAb 100 nM, share of points within parent mean +/-3 SD; set-up: key: % of mutant data points within parent mAb mean ±3 SD
Source text: as §1

[4] = target: T1, wildtype feline IL-31 protein …; assay: cell-based or functional assay

B1: A03 (antibody, V domains shown)
VH: QVLLVQSGAEVRTPGASVKIFCKASGYSFTSYTIHWLRQAPAQGLEWMGNINPTSGYTENNQRFKDRLTLTADTSTNTAYMELSSLRSADTAMYYCARWGFKYDGEWSFDVWGAGTTVTVSS
VL: EIQMTQSPSSLSASPGDRVTITCRASQAISIWLSWYQQKPGNIPKVLINKASNLHIGVPSRFSGSGSGTDFTLTISSLEPEDAATYYCLQSQTYPLTFGGGTKLEIK
notes: sample ID reads A03 although it stands between A07 and A09
B1 was tested, and the “Binding Similarity score” value [1] was 58 and the “% Inhibition Relative to Parent (pSTAT, FCWF-4 cells)” value (from here on “% Inhibition Relative to Parent”) [2] was 52.9%.

B2: A07 (antibody, V domains shown)
VH: QVLLVQSGAEVRTPGASVKIFCKASGYSFTSYTIHWLRQAPAQGLEWMGNINPTSGYTENNQRFKDRLTLTADTSTNTAYMELSSLRSADTAMYYCARWGFKYDGEWSFDVWGAGTTVTVSS
VL: EIQMTQSPSSLSASPGDRVTITCRASAGISIWLSWYQQKPGNIPKVLINKASNLHIGVPSRFSGSGSGTDFTLTISSLEPEDAATYYCLQSQTYPLTFGGGTKLEIK
In the case of B2, the “Binding Similarity score” value [1] is reported as 74.4 and the “% Inhibition Relative to Parent” value [2] is reported as 93.6%.

B3: A55 (antibody, V domains shown)
VH: QVLLVQSGAEVRTPGASVKIFCKASGYSFTSYTIHWLRQAPAQGLEWMGNINPTSGYTENNQRFKDRLTLTADTSTNTAYMELSSLRSADTAMYYCARWGFAYDGEWSFDVWGAGTTVTVSS
VL: EIQMTQSPSSLSASPGDRVTITCRASQGISIWLSWYQQKPGNIPKVLINKASNLHIGVPSRFSGSGSGTDFTLTISSLEPEDAATYYCLQSQTYPLTFGGGTKLEIK
In the case of B3, the “Binding Similarity score” value [3] is reported as 12.6 and the “% Inhibition Relative to Parent” value [4] is reported as 66.8%.

B4: A62 (antibody, V domains shown)
VH: QVLLVQSGAEVRTPGASVKIFCKASGYSFTSYTIHWLRQAPAQGLEWMGNINPTSGYTENNQRFKDRLTLTADTSTNTAYMELSSLRSADTAMYYCARWGFKYDGEWAFDVWGAGTTVTVSS
VL: EIQMTQSPSSLSASPGDRVTITCRASQGISIWLSWYQQKPGNIPKVLINKASNLHIGVPSRFSGSGSGTDFTLTISSLEPEDAATYYCLQSQTYPLTFGGGTKLEIK
B4 was tested, and the “Binding Similarity score” value [3] was 46.1 and the “% Inhibition Relative to Parent” value [4] was 22.6%.

B5: A57 (antibody, V domains shown)
VH: QVLLVQSGAEVRTPGASVKIFCKASGYSFTSYTIHWLRQAPAQGLEWMGNINPTSGYTENNQRFKDRLTLTADTSTNTAYMELSSLRSADTAMYYCARWGFKYAGEWSFDVWGAGTTVTVSS
VL: EIQMTQSPSSLSASPGDRVTITCRASQGISIWLSWYQQKPGNIPKVLINKASNLHIGVPSRFSGSGSGTDFTLTISSLEPEDAATYYCLQSQTYPLTFGGGTKLEIK
With B5 the “Binding Similarity score” value [3] was 38.9 and the “% Inhibition Relative to Parent” value [4] was 85.4%.

B6: A09 (antibody, V domains shown)
VH: QVLLVQSGAEVRTPGASVKIFCKASGYSFTSYTIHWLRQAPAQGLEWMGNINPTSGYTENNQRFKDRLTLTADTSTNTAYMELSSLRSADTAMYYCARWGFKYDGEWSFDVWGAGTTVTVSS
VL: EIQMTQSPSSLSASPGDRVTITCRASQGASIWLSWYQQKPGNIPKVLINKASNLHIGVPSRFSGSGSGTDFTLTISSLEPEDAATYYCLQSQTYPLTFGGGTKLEIK
For B6, the “Binding Similarity score” value [1] was 100 and the “% Inhibition Relative to Parent” value [2] was 28%.

B7: A05 (antibody, V domains shown)
VH: QVLLVQSGAEVRTPGASVKIFCKASGYSFTSYTIHWLRQAPAQGLEWMGNINPTSGYTENNQRFKDRLTLTADTSTNTAYMELSSLRSADTAMYYCARWGFKYDGEWSFDVWGAGTTVTVSS
VL: EIQMTQSPSSLSASPGDRVTITCAASQGISIWLSWYQQKPGNIPKVLINKASNLHIGVPSRFSGSGSGTDFTLTISSLEPEDAATYYCLQSQTYPLTFGGGTKLEIK
For B7, the “Binding Similarity score” value [1] was 25.6 and the “% Inhibition Relative to Parent” value [2] was 0%.

B8: A58 (antibody, V domains shown)
VH: QVLLVQSGAEVRTPGASVKIFCKASGYSFTSYTIHWLRQAPAQGLEWMGNINPTSGYTENNQRFKDRLTLTADTSTNTAYMELSSLRSADTAMYYCARWGFKYDAEWSFDVWGAGTTVTVSS
VL: EIQMTQSPSSLSASPGDRVTITCRASQGISIWLSWYQQKPGNIPKVLINKASNLHIGVPSRFSGSGSGTDFTLTISSLEPEDAATYYCLQSQTYPLTFGGGTKLEIK
In the case of B8, the “Binding Similarity score” value [3] is reported as 16.7 and the “% Inhibition Relative to Parent” value [4] is reported as 15.3%.

B9: A64 (antibody, V domains shown)
VH: QVLLVQSGAEVRTPGASVKIFCKASGYSFTSYTIHWLRQAPAQGLEWMGNINPTSGYTENNQRFKDRLTLTADTSTNTAYMELSSLRSADTAMYYCARWGFKYDGEWSFAVWGAGTTVTVSS
VL: EIQMTQSPSSLSASPGDRVTITCRASQGISIWLSWYQQKPGNIPKVLINKASNLHIGVPSRFSGSGSGTDFTLTISSLEPEDAATYYCLQSQTYPLTFGGGTKLEIK
For B9, the “Binding Similarity score” value [3] was 2.7 and the “% Inhibition Relative to Parent” value [4] was 6.9%.

B10: A63 (antibody, V domains shown)
VH: QVLLVQSGAEVRTPGASVKIFCKASGYSFTSYTIHWLRQAPAQGLEWMGNINPTSGYTENNQRFKDRLTLTADTSTNTAYMELSSLRSADTAMYYCARWGFKYDGEWSADVWGAGTTVTVSS
VL: EIQMTQSPSSLSASPGDRVTITCRASQGISIWLSWYQQKPGNIPKVLINKASNLHIGVPSRFSGSGSGTDFTLTISSLEPEDAATYYCLQSQTYPLTFGGGTKLEIK
For B10, the “Binding Similarity score” value [3] was 2.9 and the “% Inhibition Relative to Parent” value [4] was -6%.

B11: A65 (antibody, V domains shown)
VH: QVLLVQSGAEVRTPGASVKIFCKASGYSFTSYTIHWLRQAPAQGLEWMGNINPTSGYTENNQRFKDRLTLTADTSTNTAYMELSSLRSADTAMYYCARWGFKYDGEWSFDAWGAGTTVTVSS
VL: EIQMTQSPSSLSASPGDRVTITCRASQGISIWLSWYQQKPGNIPKVLINKASNLHIGVPSRFSGSGSGTDFTLTISSLEPEDAATYYCLQSQTYPLTFGGGTKLEIK
B11 was tested, and the “Binding Similarity score” value [3] was 50.5 and the “% Inhibition Relative to Parent” value [4] was 26.8%.

B12: A06 (antibody, V domains shown)
VH: QVLLVQSGAEVRTPGASVKIFCKASGYSFTSYTIHWLRQAPAQGLEWMGNINPTSGYTENNQRFKDRLTLTADTSTNTAYMELSSLRSADTAMYYCARWGFKYDGEWSFDVWGAGTTVTVSS
VL: EIQMTQSPSSLSASPGDRVTITCRAAQGISIWLSWYQQKPGNIPKVLINKASNLHIGVPSRFSGSGSGTDFTLTISSLEPEDAATYYCLQSQTYPLTFGGGTKLEIK
With B12 the “Binding Similarity score” value [1] was 89.7 and the “% Inhibition Relative to Parent” value [2] was 40%.

B13: A60 (antibody, V domains shown)
VH: QVLLVQSGAEVRTPGASVKIFCKASGYSFTSYTIHWLRQAPAQGLEWMGNINPTSGYTENNQRFKDRLTLTADTSTNTAYMELSSLRSADTAMYYCARWGFKYDGEASFDVWGAGTTVTVSS
VL: EIQMTQSPSSLSASPGDRVTITCRASQGISIWLSWYQQKPGNIPKVLINKASNLHIGVPSRFSGSGSGTDFTLTISSLEPEDAATYYCLQSQTYPLTFGGGTKLEIK
For B13, the “Binding Similarity score” value [3] was 2.4 and the “% Inhibition Relative to Parent” value [4] was -8.7%.

B14: A10 (antibody, V domains shown)
VH: QVLLVQSGAEVRTPGASVKIFCKASGYSFTSYTIHWLRQAPAQGLEWMGNINPTSGYTENNQRFKDRLTLTADTSTNTAYMELSSLRSADTAMYYCARWGFKYDGEWSFDVWGAGTTVTVSS
VL: EIQMTQSPSSLSASPGDRVTITCRASQGIAIWLSWYQQKPGNIPKVLINKASNLHIGVPSRFSGSGSGTDFTLTISSLEPEDAATYYCLQSQTYPLTFGGGTKLEIK
In the case of B14, the “Binding Similarity score” value [1] is reported as 63.4 and the “% Inhibition Relative to Parent” value [2] is reported as 26%.
